Measured values reported in US11360104, “Microbial-based biosensors” (TRUSTEES OF BOSTON UNIVERSITY).

Key:
TetRc-tdTomato [1] = biological target: T1, TetRc-tdTomato (UniProt P03039 P03039:1-219); experiment: FRET; only collisional quenching; details: tags: tdTomato fusion, Strep-tag purified; chain copies: 2; label: Cy5 at 5' and 3' of reverse strand
T1 chain: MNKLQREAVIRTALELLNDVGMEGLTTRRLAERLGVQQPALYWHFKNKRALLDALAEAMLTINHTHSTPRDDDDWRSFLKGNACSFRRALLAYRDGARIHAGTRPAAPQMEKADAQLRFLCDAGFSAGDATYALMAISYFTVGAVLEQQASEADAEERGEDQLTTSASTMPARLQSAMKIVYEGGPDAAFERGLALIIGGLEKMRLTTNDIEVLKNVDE
Procedure: (§1) For QD-based nanoconstructs, the his-tagged proteins self-assemble to the QD surface stoichiometrically according to the mixture ratio with a Poissonian distribution of proteins on the QD surface was used. […] Four his6-TetR monomers were used per QD for the titrations of Sensors 2 and 3 (FIG. 2A-C). […] Upon increasing DNA concentration, there is increased donor quenching in all three cases.
(§2) FRET assays. The FRET response of each sensor as a function of the donor-acceptor ratio was tested by titration of the acceptor while the concentration of the donor was kept constant. Briefly, the sensors were prepared in a solution of TBS+0.2% (w/v) BSA and 1× binding buffer (20 mM Tris-HCl, 5 mM MgCl_2, 5% glycerol, 50 ng/µl salmon sperm DNA). For Sensor 1, the final concentration of tetR-tdTomato was kept constant at 200 nM, while Cy5-modified DNA were titrated to yield donor-acceptor ratios ranging from 0-9. The sensor solution was pipetted into wells of a black, non-binding 384-well plate (Corning) with a final volume of 60 µl. For triplicate measurements, each of the above solutions were prepared with a final volume of 180 µl in microcentrifuge tubes and pipetted into 3 separate wells of 60 µl each.

TetRc-6His [2] = biological target: T2, TetRc-6His (UniProt P03039 P03039:1-219); experiment: FRET; only collisional quenching; details: tags: His6, on quantum dot QD1; chain copies: 2; label: Cy5 at 5' and 3' of reverse strand
T2 chain: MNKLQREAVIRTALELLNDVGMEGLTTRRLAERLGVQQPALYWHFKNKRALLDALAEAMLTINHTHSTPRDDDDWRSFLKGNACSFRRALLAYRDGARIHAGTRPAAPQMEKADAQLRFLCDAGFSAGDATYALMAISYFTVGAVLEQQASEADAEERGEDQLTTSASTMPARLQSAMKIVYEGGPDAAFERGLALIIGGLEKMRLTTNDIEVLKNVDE
Procedure: as §1, §2
(§3) For Sensors 2 and 3, QDs and tetR-6His were mixed at a 1:4 ratio with a final QD concentration of 50 nM for self-assembly of the tetR-6His to the surface of the QDs[21]. […]

TetRd-6His [3] = biological target: T3, TetRd-6His (UniProt P0ACT4 P0ACT4:2-218); experiment: FRET; only collisional quenching; details: tags: His6, on quantum dot QD2; chain copies: 2; label: Cy5 at 5' and 3' of reverse strand
T3 sequence (P0ACT4 2-218, one chain of several): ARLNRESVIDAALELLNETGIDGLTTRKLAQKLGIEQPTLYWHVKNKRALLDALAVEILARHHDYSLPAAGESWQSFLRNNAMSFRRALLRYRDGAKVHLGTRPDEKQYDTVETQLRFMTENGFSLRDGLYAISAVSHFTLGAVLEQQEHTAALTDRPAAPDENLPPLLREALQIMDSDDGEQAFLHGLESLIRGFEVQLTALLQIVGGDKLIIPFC
Procedure: as §1, §2, §3

TetRc-tdTomato [4] = biological target: T1, TetRc-tdTomato; experiment: FRET; aTc concentration for half-maximal DNA release; 5 mM MgCl2; details: tags: tdTomato fusion, Strep-tag purified; chain copies: 2; label: Cy5 at 5' and 3' of reverse strand
Procedure: (§4) At higher concentrations of aTc, binding of the TF and DNA is disrupted, reducing FRET, thereby increasing donor emission and reducing acceptor emission. Spectra are background subtracted to eliminate the effects of direct acceptor excitation. FIG. 3D-3F show the ratio of acceptor fluorescence intensity to donor fluorescence intensity as a function of aTc concentration. […] Sensor 1 was prepared with a 1:1:3 ratio of tdTomato:TF:DNA, while sensors 2 and 3 were prepared with a 1:4:18 ratio of QD:TF:DNA. tdTomato (200 nM) and QD (50 nM) concentrations were selected to keep TF concentration constant at 200 nM. Data are mean±standard deviation for n=3.
(§5) A TF to DNA ratio was chosen for each sensor (1:3 for Sensor 1, 1:4.5 for Sensors 2 and 3) and kept constant for subsequent experiments testing sensor sensitivity to aTc. Photoluminescence spectra were measured from sensors with increasing concentrations of aTc yielded changes in the ratio between the acceptor emission and donor emission (F_A/F_D). With increasing concentrations of aTc, F_A/F_D values decreased indicating unbinding of the DNA from the TF resulting in an increase in donor emission and decrease in acceptor emission (FIG. 3A-F). No changes were observed when aTc was titrated into a solution of non-binding donor-acceptor pairs (scrambled controls). […]

TetRc-6His [5] = biological target: T2, TetRc-6His; experiment: as above; details: tags: His6, on quantum dot QD1; chain copies: 2; label: Cy5 at 5' and 3' of reverse strand
Procedure: as §4, §5

TetRd-6His [6] = biological target: T3, TetRd-6His; experiment: FRET; aTc for half-maximal DNA release; lower DNA affinity than TetRc; 5 mM MgCl2; details: tags: His6, on quantum dot QD2; chain copies: 2; label: Cy5 at 5' and 3' of reverse strand
[7] = biological target: T4, PinR (AIY20223.2, TetR family) (Pimelobacter simplex); experiment: FRET; progesterone for half-maximal DNA release; QD/TF/DNA 1/4/18; details: tags: C-terminal His6, self-assembled on CdSe/CdS/ZnS quantum dot; label: Cy5 at 5' and 3'
T4 chain: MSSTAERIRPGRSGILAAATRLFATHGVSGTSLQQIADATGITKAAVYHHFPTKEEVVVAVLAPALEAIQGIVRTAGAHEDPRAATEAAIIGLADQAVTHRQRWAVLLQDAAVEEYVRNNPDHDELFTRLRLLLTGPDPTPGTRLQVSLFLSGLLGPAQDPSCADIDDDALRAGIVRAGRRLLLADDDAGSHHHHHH

[8] = biological target: T4, PinR (AIY20223.2, TetR family); experiment: FRET; progesterone concentration for half-maximal DNA release; QD/TF/DNA 1/4/18; described as strongest binding sequence; details: tags: C-terminal His6, self-assembled on CdSe/CdS/ZnS quantum dot; label: Cy5 at 5' and 3'

B1: Scrambled TetO control (dsDNA)
DNA 1: TCGTGAAACCGAGCGAGGGACACGCACA
DNA 2: TGTGCGTGTCCCTCGCTCGGTTTCACGA
B1: no binding (TetRc-tdTomato [1]); no binding (TetRc-6His [2]); no binding (TetRd-6His [3]).

B2: TetO 28 bp (dsDNA)
DNA 1: GTCATCCCTATCATTGATAGAGATACTG
DNA 2: CAGTATCTCTATCAATGATAGGGATGAC
In the case of B2, the EC50 (TetRc-tdTomato [4]) is reported as 218 nM, the EC50 (TetRc-6His [5]) is reported as 699 nM and the EC50 (TetRd-6His [6]) is reported as 133 nM.

B3: DNA3 (AIY20222.2) (dsDNA)
DNA 1: GCCTAACTAGCCGTTCGGCAAGTAATTC
DNA 2: GAATTACTTGCCGAACGGCTAGTTAGGC
In the case of B3, the IC50 [7] is reported as 290 nM.

B4: DNA2 (IG.AIY19519.15) (dsDNA)
DNA 1: GCCTAACTAGCCGATCGGCTAGTCATTC
DNA 2: GAATGACTAGCCGATCGGCTAGTTAGGC
Work on B4 yielded an IC50 [7] of 370 nM.

B5: DNA1 (AIY20223.2) (dsDNA)
DNA 1: GCCTAACTAGCCGTTCGGCTAGTTATTC
DNA 2: GAATAACTAGCCGAACGGCTAGTTAGGC
Work on B5 yielded an IC50 [8] of 460 nM.

B6: DNA4 (13,15-T,T) (dsDNA)
DNA 1: CCTTAACTAGCCGTTCTGTTAGTTATTC
DNA 2: GAATAACTAACAGAACGGCTAGTTAAGG
In the case of B6, the IC50 [7] is reported as 150 nM.
